Test results taken from PMC12245079, “FUS Selectively Facilitates circRNAs Packing into Small Extracellular Vesicles within Hypoxia Neuron”.

Experiments:
Experiment in all cases: EMSA; 100 nM probe; 10 mM Tris-HCl pH 8.0, 10 mM NaCl, 25 mM KCl, 1 mM MgCl2, 1 mM DTT, 1 mg/mL tRNA; room temperature 30 min; 4% native acrylamide gel, 1x TBE
FUS polypeptide-2 = FUS polypeptide-2 (UniProt P35637 50-400); settings: protein: commercial; tags: GST fusion (pGEX-4T-1) described; label: Cy3 (3')
FUS polypeptide-4 = FUS polypeptide-4 (UniProt P35637 280-375); settings: protein: recombinant; tags: GST fusion (pGEX-4T-1), TEV cleavage described; label: Cy3 (3')
Chain of FUS polypeptide-4 (P35637 280-375): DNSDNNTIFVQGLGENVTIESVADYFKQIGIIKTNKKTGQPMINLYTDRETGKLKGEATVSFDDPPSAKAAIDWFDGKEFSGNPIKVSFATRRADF

FUS polypeptide-3 = FUS polypeptide-3 (UniProt P35637 1-380); settings: protein: recombinant; tags: GST fusion (pGEX-4T-1), TEV cleavage described; label: Cy3 (3')
Chain of FUS polypeptide-3 (P35637 1-380): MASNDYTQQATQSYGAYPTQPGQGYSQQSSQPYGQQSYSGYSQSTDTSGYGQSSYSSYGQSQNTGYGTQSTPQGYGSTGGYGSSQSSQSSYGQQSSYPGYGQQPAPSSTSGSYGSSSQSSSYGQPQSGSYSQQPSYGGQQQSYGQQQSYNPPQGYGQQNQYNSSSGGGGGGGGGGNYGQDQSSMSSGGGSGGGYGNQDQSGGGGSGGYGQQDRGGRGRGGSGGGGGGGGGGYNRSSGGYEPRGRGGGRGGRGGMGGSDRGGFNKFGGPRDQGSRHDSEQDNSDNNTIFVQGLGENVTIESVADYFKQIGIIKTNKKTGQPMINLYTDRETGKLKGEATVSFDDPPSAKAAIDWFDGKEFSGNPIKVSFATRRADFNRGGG

FUS polypeptide-1 = FUS polypeptide-1 (UniProt P35637 1-526); settings: protein: recombinant; tags: GST fusion (pGEX-4T-1), TEV cleavage described; label: Cy3 (3')
Chain of FUS polypeptide-1 (P35637 whole entry, the tested form may be a part): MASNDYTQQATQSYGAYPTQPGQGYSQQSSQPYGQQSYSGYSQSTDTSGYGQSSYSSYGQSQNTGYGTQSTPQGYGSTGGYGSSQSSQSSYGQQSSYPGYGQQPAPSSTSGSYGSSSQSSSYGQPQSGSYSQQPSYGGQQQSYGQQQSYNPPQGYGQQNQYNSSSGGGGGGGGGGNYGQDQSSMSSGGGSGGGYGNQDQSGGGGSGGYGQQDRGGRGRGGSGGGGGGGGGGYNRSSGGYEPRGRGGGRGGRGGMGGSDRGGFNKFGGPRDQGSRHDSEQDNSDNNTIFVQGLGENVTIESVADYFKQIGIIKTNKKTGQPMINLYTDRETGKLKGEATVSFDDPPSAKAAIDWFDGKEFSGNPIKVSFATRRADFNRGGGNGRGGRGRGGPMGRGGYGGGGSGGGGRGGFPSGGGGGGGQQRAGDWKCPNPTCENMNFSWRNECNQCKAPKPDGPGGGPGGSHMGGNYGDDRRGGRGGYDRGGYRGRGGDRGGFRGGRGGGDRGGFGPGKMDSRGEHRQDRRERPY

Chain of FUS polypeptide-2 (P35637 50-400): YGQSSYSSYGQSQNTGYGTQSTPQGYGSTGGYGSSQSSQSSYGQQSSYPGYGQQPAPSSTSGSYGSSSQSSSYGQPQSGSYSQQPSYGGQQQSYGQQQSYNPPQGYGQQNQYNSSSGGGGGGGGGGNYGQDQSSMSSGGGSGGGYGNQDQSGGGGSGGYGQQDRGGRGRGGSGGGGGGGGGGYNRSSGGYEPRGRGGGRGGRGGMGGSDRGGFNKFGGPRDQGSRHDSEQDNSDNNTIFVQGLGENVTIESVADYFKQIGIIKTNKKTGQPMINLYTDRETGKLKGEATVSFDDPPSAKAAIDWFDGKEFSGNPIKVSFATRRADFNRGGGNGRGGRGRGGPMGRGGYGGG

B1: GGUG oligo (ssRNA)
RNA: UUGUAUUUUGAGCUAGUUUGGUGAC
B1: binds (FUS polypeptide-2); no binding (FUS polypeptide-4); binds (FUS polypeptide-3). B1: binds (FUS polypeptide-1).
